Results published in patent US20210155676A1 (Gilead, published 2021).

What was measured:
human FcγRIIIA [1] = target: T1, human FcγRIIIA (human, UniProt P08637 17-254); assay: cell-based or functional assay
human FcγRIIIA [2] = target: T1, human FcγRIIIA; assay: cell-based or functional assay; remark: listed apart in the source
human FcγRIIIA [3] = target: T1, human FcγRIIIA; assay: cell-based or functional assay; remark: listed apart in the source
[4] = target: HIV-1 92US727 Env (on virus) (HIV-1 isolate 92US727); assay: cell-based or functional assay
HIV-1 BaL Env (on virus) = HIV-1 BaL Env (on virus) (HIV-1 strain BaL); assay: cell-based or functional assay
[5] = target: HIV-1 92US712 Env (on virus) (HIV-1 isolate 92US712); assay: cell-based or functional assay
[6] = target: HIV-1 93HT593 Env (on virus) (HIV-1 isolate 93HT593); assay: cell-based or functional assay
[7] = target: HIV-1 92US657 Env (on virus) (HIV-1 isolate 92US657); assay: cell-based or functional assay
gp140 BaL = target: T2, gp140 BaL (HIV-1 strain BaL); assay: ELISA, gp140 coated
T2 construct: domain: gp140
Procedure: (§1) The in vitro binding characteristics of antibodies for both the antigen (HIV gp120) and Fc binding receptors (FcγRs, FcRn) were determined using an Enzyme-Linked Immunosorbant Assay (ELISA).

gp140 SHIV SF162P3 = target: T3, gp140 SHIV SF162P3 (SHIV SF162P3); assay: ELISA, gp140 coated
T3 construct: domain: gp140; also called SHIV gp140
Procedure: as §1

T1 sequence (P08637 17-254): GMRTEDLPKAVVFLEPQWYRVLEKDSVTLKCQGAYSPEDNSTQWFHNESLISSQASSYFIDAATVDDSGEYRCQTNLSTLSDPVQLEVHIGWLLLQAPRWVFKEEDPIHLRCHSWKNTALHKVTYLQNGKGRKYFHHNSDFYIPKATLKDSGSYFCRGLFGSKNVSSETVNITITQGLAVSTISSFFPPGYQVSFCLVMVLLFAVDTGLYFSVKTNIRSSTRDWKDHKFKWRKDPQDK

B1: PGT121.42 hIgG1/hLambda (antibody)
heavy: QMQLQESGPGLVKPSETLSLTCSVSGASISDSYWSWIRRSPGKGLEWIGYVHKSGDTNYNPSLKSRVHLSLDTSKNQVSLSLSSVTAADSGKYYCARTLHGRRIYGIVAFNEWFTYFYMDVWGKGTQVTVSSASTKGPSVFPLAPSSKSTSGGTAALGCLVKDYFPEPVTVSWNSGALTSGVHTFPAVLQSSGLYSLSSVVTVPSSSLGTQTYICNVNHKPSNTKVDKKVEPKSCDKTHTCPPCPAPELLAGPDVFLFPPKPKDTLMISRTPEVTCVVVDVSHEDPEVKFNWYVDGVEVHNAKTKPREEQYNSTYRVVSVLTVLHQDWLNGKEYKCKVSNKALPLPEEKTISKAKGQPREPQVYTLPPSREEMTKNQVSLTCLVKGFYPSDIAVEWESNGQPENNYKTTPPVLDSDGSFFLYSKLTVDKSRWQQGNVFSCSVLHEALHSHYTQKSLSLSPGK
light: not shown
notes: also called PTG121.42
NK ADCC EC50, HT593-infected CD4+ T cells, donor 1 (human FcγRIIIA [1]): 0.024 nM
NK ADCC EC50, HT593-infected CD4+ T cells, donor A4588 (human FcγRIIIA [1]): 0.176 nM
NK ADCC EC50, HT593-infected CD4+ T cells, donor A4589 (human FcγRIIIA [1]): 0.18 nM
NK ADCC EC50, HT593-infected CD4+ T cells, donor A4813 (human FcγRIIIA [1]): 4.9 nM
NK ADCC EC50, HT593-infected CD4+ T cells, donor A4838 (human FcγRIIIA [1]): 0.62 nM
NK ADCC EC50, HT593-infected CD4+ T cells, donor A4839 (human FcγRIIIA [1]): 5.2 nM
NK ADCC EC50, HT593-infected CD4+ T cells, donor X (human FcγRIIIA [1]): 0.014 nM
NK ADCC EC50, HT593-infected CD4+ T cells, geomean of donors (human FcγRIIIA [1]): 0.3 nM
NK ADCC EC50, US657-infected CD4+ T cells, donor A4588 (human FcγRIIIA [2]): 4.3 nM
NK ADCC EC50, US657-infected CD4+ T cells, donor A4589 (human FcγRIIIA [2]): 1.5 nM
NK ADCC EC50, US657-infected CD4+ T cells, donor A4595 (human FcγRIIIA [2]): 0.57 nM
NK ADCC EC50, US657-infected CD4+ T cells, donor A4813 (human FcγRIIIA [2]): 1.4 nM
NK ADCC EC50, US657-infected CD4+ T cells, donor A4838 (human FcγRIIIA [2]): 0.94 nM
NK ADCC EC50, US657-infected CD4+ T cells, donor A4839 (human FcγRIIIA [2]): 0.54 nM
NK ADCC EC50, US657-infected CD4+ T cells, geomean of donors (human FcγRIIIA [2]): 1.2 nM
NK ADCC EC50, BaL-infected CD4+ T cells, donor A4590 (human FcγRIIIA [3]): 1.2 nM
NK ADCC EC50, BaL-infected CD4+ T cells, donor A4591 (human FcγRIIIA [3]): 0.02 nM
NK ADCC EC50, BaL-infected CD4+ T cells, donor A4813 (human FcγRIIIA [3]): 4.4 nM
NK ADCC EC50, BaL-infected CD4+ T cells, donor A4838 (human FcγRIIIA [3]): 0.5 nM
NK ADCC EC50, BaL-infected CD4+ T cells, donor A4839 (human FcγRIIIA [3]): 3.9 nM
NK ADCC EC50, BaL-infected CD4+ T cells, geomean of donors (human FcγRIIIA [3]): 0.7 nM
neutralization IC50, HIV-1 US727, CEM.NKr.CCR5.Luc assay [4]: 0.015 µg/mL
neutralization IC50, HIV-1 BaL, CEM.NKr.CCR5.Luc assay (HIV-1 BaL Env (on virus)): 0.015 µg/mL
neutralization IC50, HIV-1 US712, CEM.NKr.CCR5.Luc assay [5]: 0.02 µg/mL
neutralization IC50, HIV-1 HT593, CEM.NKr.CCR5.Luc assay [6]: 0.155 µg/mL
neutralization IC50, HIV-1 US657, CEM.NKr.CCR5.Luc assay [7]: 0.096 µg/mL
EC50 (gp140 BaL): 0.52 nM
EC50 (gp140 SHIV SF162P3): 0.45 nM
